# Test results published in US20260183370A1 (ASCENDIS PHARMA GROWTH DISORDERS A S, published 2026).
# Bridge positions count the residues as written; N and C are the ends. Side chains are listed from the residue outwards. Ends that are not written are not given here. * marks the point of attachment. Hexanoyl(6-maleimido) = O=C1C=CC(=O)N1CCCCCC(=O)*; reversible prodrug linker = not defined here
# T1: NPR-B receptor (natriuretic peptide receptor B), endogenous on NIH-3T3 cells (murine (endogenous in NIH-3T3 cells), UniProt Q6VVW5 17-1047)
# T1 sequence (looked up): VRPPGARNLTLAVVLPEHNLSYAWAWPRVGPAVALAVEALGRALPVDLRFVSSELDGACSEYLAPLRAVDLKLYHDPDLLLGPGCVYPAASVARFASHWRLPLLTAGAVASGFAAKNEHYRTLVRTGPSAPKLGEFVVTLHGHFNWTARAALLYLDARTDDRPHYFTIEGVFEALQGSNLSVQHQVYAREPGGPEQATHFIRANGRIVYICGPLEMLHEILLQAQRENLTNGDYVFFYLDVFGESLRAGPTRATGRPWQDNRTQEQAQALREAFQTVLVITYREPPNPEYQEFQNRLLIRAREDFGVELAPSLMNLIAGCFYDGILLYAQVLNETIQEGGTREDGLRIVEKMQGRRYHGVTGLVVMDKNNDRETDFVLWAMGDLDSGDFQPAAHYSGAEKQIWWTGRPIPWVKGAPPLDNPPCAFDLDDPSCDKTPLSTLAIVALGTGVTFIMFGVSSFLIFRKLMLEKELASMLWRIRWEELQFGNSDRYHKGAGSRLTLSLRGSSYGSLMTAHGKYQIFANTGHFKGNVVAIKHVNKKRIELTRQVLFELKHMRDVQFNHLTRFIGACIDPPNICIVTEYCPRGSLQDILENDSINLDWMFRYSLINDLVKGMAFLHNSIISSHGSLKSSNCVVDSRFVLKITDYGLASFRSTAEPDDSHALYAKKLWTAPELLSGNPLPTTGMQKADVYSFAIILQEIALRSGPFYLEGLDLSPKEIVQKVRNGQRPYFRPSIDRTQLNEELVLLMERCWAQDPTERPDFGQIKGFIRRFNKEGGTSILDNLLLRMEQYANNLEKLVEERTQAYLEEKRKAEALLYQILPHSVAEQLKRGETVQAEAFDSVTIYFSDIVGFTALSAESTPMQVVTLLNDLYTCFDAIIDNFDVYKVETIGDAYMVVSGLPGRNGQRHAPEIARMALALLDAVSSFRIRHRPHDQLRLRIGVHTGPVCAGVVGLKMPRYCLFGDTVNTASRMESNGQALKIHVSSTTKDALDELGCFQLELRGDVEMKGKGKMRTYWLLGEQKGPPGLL
# T2: NPR-C (natriuretic peptide receptor C), expressed on Hek293 cells (UniProt P17342 27-541, limits assumed)
# T2 construct: whole, on cells
# T2 sequence (looked up): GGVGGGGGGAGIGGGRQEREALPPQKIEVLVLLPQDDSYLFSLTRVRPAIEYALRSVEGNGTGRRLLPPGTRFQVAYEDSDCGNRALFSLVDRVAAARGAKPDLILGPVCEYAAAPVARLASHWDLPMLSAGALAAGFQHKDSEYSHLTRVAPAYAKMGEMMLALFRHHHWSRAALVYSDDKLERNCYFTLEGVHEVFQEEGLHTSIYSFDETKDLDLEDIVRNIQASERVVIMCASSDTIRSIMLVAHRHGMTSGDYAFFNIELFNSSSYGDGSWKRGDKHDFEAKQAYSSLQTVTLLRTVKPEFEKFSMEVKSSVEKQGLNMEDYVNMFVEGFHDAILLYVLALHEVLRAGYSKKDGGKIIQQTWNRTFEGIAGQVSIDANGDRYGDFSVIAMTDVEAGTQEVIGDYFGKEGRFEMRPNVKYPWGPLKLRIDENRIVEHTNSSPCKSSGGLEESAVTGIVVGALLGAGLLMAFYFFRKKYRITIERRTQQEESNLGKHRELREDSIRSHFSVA
# B1: Permanent Lys26 CNP-38 PEG 5 kDa conjugate 19e (peptide)
# peptide: LQEHPNARKYKGANKKGLSKGCFGLKLDRIGSMSGLGC
# modifications: 5 kDa PEG stably attached through maleimidohexanoyl/thiol to the side chain of Lys26 (ring lysine); disulfide Cys22-Cys38
# B2: Permanent Lys26 CNP-38 PEG4x10 kDa conjugate 12g (peptide)
# peptide: B1 peptide
# modifications: disulfide 22-38; not fully specified (residue 26)
# B3: Released CNP-38 (released from conjugate 11i after 7 d under physiological conditions, isolated by RP-HPLC) (peptide)
# peptide: B1 peptide
# modifications: disulfide 22-38
# B4: Conjugate 31d (4-arm PEG 40 kDa, Lys26 CNP-38, reversible conjugate) (peptide)
# peptide: B1 peptide
# modifications: not fully specified; Lys26 side chain attached through a reversible Asn-linker (maleimidohexanoyl) to a thiol arm of 4-arm-thiol-PEG 40 kDa; disulfide Cys22-Cys38
# B5: Reversible Lys26 CNP-38 PEG2x20 kDa conjugate 10f (peptide)
# peptide: B1 peptide
# modifications: disulfide 22-38; not fully specified (residue 26)
# notes: This is a reversible conjugate with an in vitro release half-life of 8.5 d
# B6: Permanent N-terminal CNP-38 PEG 5 kDa conjugate 15e (peptide)
# peptide: {PEG 5 kDa-Hexanoyl(6-maleimido)}-LQEHPNARKYKGANKKGLSKGCFGLKLDRIGSMSGLGC
# modifications: disulfide 22-38
# B7: Reversible Lys26 CNP-38 PEG4x10 kDa conjugate 11i (peptide)
# peptide: LQEHPNARKYKGANKKGLSKGCFGLK([reversible prodrug linker-4x10 kDa PEG])LDRIGSMSGLGC
# modifications: disulfide 22-38; reading uncertain
# notes: This is a reversible conjugate with an in vitro release half-life of 9.5 d
# Columns and labels:
# [1] = molecular target: T1, NPR-B receptor (natriuretic peptide …); assay: cell-based or functional assay
# [2] = molecular target: T2, NPR-C (natriuretic peptide receptor C), …; assay: competition with fluorescein-labelled CNP-38 27d on NPR-C expressing Hek293 cells, flow cytometry (MFI), 4PL fit; ratio to CNP-38
# Text: For the NPR—C affinity assay, a NPR—C expressing Hek293 cell line was developed. The coding region of the NPR—C sequence (BC131540) was cloned into a lentiviral vector under CMV promoter for constitutive receptor expression. A bicistronic element located on the vector for puromycin resistence was used as eukaryotic selection marker. After transduction, stably growing cell pools were subjected to qRT-PCR for confirmation of receptor mRNA-expression compared to parental Hek293 cells. An NPR—C-expressing cell pool was expanded and frozen as master cell bank for CNP sample testing.
# For the assay, growing cells were trypsinized from the cell flask bottom, counted, and seeded in a 96-well plate (1.5×10⁵/well) and centrifuged. Supernatants were discarded. CNP standard and sample were serially diluted over 9 steps in PBS 0.2% BSA and transferred to the micro plate in duplicates and mixed with cells. […] Subsequently, cells were analyzed by flow cytometry using mean fluorescence intensity of the FITC channel (FL1, Beckman Coulter FC500MPL) as read out.
# [3] = molecular target: T1, NPR-B receptor (natriuretic peptide …); assay: cell-based or functional assay; remark: listed apart in the source
Binder,"EC50 compound/EC50 CNP-38 (residual NPR-B activity, cGMP production in NIH-3T3 cells) [1]",IC50 of PEGylated CNP-38/IC50 CNP-38 [2],EC50 compound/EC50 CNP-38 (cGMP production in NIH-3T3 cells) [3]
B1,> 100 ratio,1.1 ratio,–
B2,> 100 ratio,143 ratio,–
B3,–,–,1 ratio
B4,–,1.7 ratio,–
B5,> 100 ratio,12 ratio,–
B6,> 5 ratio,0.53 ratio,–
B7,> 100 ratio,91 ratio,–
